The values below come from publication PMC4897640, “Functional diversity of family 3 β-glucosidases from thermophilic cellulolytic fungus Humicola insolens Y1” (Scientific Reports, 2016).

The target of data set [1] is T1, HiBgl3B (Mycothermus thermophilus, UniProt A0A191KCR2).
T1 construct: GenBank printed as KT203372, same as Hibgl3C, so probably a misprint of KT203371
Nature of the data set: pNPG hydrolysis, Dixon plot. The class given is biochemical. To be noted: read-out: Ki (mM) / pNPG; substrate pNPG 0.75 and 1 mM, glucose 5-50 mM; product inhibition, mode not stated.

In data set [2] the target is HiBgl3A (Mycothermus thermophilus, UniProt A0A191KCR1). Briefly: pNPG hydrolysis, Dixon plot. The class given is biochemical. The following applies: read-out: Ki (mM) / pNPG; substrate pNPG 0.75 and 1 mM, glucose 5-50 mM; product inhibition, mode not stated.
Sequence of HiBgl3A (A0A191KCR1 entry or part of it): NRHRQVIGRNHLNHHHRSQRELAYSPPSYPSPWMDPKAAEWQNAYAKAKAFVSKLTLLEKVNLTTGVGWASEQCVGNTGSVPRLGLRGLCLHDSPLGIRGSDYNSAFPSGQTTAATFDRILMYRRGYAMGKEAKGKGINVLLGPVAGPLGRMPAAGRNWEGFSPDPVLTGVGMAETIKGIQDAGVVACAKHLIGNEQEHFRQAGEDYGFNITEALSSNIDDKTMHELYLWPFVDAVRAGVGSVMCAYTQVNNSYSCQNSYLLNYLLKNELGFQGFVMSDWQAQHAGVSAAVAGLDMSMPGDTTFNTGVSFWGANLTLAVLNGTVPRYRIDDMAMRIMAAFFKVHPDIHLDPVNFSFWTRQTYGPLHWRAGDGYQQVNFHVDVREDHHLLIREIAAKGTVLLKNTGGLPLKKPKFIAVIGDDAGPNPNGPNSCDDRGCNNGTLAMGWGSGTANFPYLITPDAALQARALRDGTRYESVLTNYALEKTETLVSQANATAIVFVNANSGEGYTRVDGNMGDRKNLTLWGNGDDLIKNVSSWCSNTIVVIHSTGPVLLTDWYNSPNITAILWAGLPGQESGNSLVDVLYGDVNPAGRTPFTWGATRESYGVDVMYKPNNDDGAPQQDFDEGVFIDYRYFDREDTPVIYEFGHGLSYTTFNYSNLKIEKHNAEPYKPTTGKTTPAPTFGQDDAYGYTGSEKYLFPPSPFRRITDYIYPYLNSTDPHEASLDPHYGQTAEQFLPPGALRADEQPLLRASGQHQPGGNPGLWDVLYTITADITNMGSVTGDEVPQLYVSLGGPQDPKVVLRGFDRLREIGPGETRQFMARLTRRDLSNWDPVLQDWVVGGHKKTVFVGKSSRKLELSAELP
The target of data set [3] is T2, HiBgl3C (Mycothermus thermophilus, UniProt A0A191KCR0).
T2 construct: the same GenBank number is also printed for Hibgl3B
T2 sequence (A0A191KCR0 18-733): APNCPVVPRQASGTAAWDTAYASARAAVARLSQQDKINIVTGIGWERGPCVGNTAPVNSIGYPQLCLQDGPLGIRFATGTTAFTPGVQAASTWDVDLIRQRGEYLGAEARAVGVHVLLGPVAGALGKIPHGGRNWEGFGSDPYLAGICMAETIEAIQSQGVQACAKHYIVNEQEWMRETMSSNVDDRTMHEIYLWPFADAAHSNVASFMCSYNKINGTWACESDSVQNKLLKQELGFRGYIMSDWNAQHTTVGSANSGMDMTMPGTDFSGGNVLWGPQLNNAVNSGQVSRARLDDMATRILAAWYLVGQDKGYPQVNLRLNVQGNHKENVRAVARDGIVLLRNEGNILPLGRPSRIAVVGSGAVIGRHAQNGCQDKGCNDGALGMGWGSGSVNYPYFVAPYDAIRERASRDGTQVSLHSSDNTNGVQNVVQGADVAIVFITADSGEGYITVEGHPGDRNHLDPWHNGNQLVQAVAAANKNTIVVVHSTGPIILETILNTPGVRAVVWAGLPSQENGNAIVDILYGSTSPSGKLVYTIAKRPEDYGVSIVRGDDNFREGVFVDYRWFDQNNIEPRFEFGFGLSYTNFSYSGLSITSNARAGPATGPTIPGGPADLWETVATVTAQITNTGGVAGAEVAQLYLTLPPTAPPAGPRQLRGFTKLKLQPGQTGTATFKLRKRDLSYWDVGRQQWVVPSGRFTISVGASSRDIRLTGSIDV
Nature of the data set: pNPG hydrolysis, Dixon plot. In kind it is biochemical. The following applies: read-out: Ki (mM) / pNPG; substrate pNPG 0.75 and 1 mM, glucose 5-50 mM; product inhibition, mode not stated.

Substrate in data set [4]: O=[N+]([O-])c1ccc(O[C@@H]2O[C@H](CO)[C@@H](O)[C@H](O)[C@H]2O)cc1
Briefly: purified protein. The following applies: 100 mM Na2HPO4-citric acid.

The mark [5] stands for this setting: optimal conditions (pH 6.0, 50 °C), pH 6.0, 50.0 °C.

Where a chain is given by its changes, count along the chain named. Names and notes keep the numbering of the source.

With `OC[C@H]1OC(O)[C@H](O)[C@@H](O)[C@@H]1O` (some centres unmarked) [glucose], the Ki turned out to be 55.2 mM in data set [1], 25 mM in data set [2] and 37.1 mM in data set [3].

B1: HiBgl3B (Mycothermus thermophilus) (protein)
chain: RVVEPRDPVPQGYHAASYYPAPHGGWVSSWREAYEKAYALVSQMTLAEKVNITSGVGIYMGPCVGNTGSVDRLGFPQLCLQDSALGVASADNVTAFPAGITTGATWDKQLMYARGVAIGKEFRGKGANIHLGPSVGPLGRKPLGGRNWEGFGSDPVLQGKAAALHIRGVQEQGIIATIKHLVGNEQEMYRMYHIFQEGYSANIDDRTLHELYLWPFAEAVRAGVGAAMTAYNAVNGSACSQNSYLINGILKDELGFQGLVMSDWLSHISGVGSALAGLDLNMPGDTNIPLFGNSLWQYELTRAVLNGSVPVDRLNDMATRVVATWYKFGQDKNHPRPNFSSNTRSRDGPLYPGALFSPSGQVNWFVNVQEDHYLVARQVAQDAITLLKNNDSLLPLDAGDLTGGKLSVFGTDAQVNPDGPNSCLARACNKGTLGMGWGSGIADYPYMDDPIGAIRKRVPDVKFYNTDSFPWFFGTPENDEVAMVFISSDSGENTLTVEGNHGDRDSAKLRAWHDGDKLVQKVAEKFKNVIVVVHTVGPLDLEPWIELPSVKAVLFAHLPGQEAGESLTNVLFGDVSPSGHLPYSITRKASDLPDSIANLKGFTWGQVQDTYSEGLYIDYRYLQKHSIQPRFAFGHGLSYTNFSFTNATIRAITTPLSVTPPAPPATRPASVVAKYSTDIPPASEAYEPAGFSRIWRYLYPWLSKSDADAAHAIGTSKSKTYPYPPGYSTVQRASFPPAGGGEGGNPALWDVAYEVTVRVTNTGKRPGKASAQLYLQFPEGIEYDTPVLQLRDFEKTKELQPGESQELKLTLTRKDVSVWDVRRQNWVVPTAIDDKKGFTAWVGEASDKLKVACYTGEGRCVEGAKQPV
One may read the Km as the substrate concentration at which the rate is half of its maximum. Broadly, the Vmax is the rate approached at saturating substrate. As usually defined, the kcat is the number of substrate molecules converted per active site and unit of time at saturation. As a reminder, the kcat/Km is the second-order rate constant that governs catalysis at low substrate concentration. Take B1: in data set [4] (setting [5]), the Km was 1510 µM, the Vmax was found to be 25.5 µmol/min/mg, the kcat was 40.4 s⁻¹ and the kcat/Km amounted to 26800 M⁻¹ s⁻¹.

B2: HiBgl3B (Mycothermus thermophilus; I81W) (protein)
chain: B1 chain with I58W
For B2, in data set [4] (optimal conditions), the Km worked out at 1990 µM, the Vmax was determined as 2.03 µmol/min/mg, the kcat was 3.21 s⁻¹ and the kcat/Km is 1610 M⁻¹ s⁻¹.
